Results as given in patent US20210347908A1 (ELPISCIENCE SUZHOU BIOPHARMA, published 2021).
Where two headings read alike, the source gives them in different places.

Columns and labels:
[1] = target: T1, full length human SIRPα v1 stably expressed on CHOK1 cells (human, UniProt P78324 31-504); assay: FACS on CHOK1 cells
T1 construct: whole, on cells; also called CHOK1-human SIRPα v1-1B4 cells; CHOK1-human SIRPα v1

[2] = target: T2, biotin labeled soluble human SIRPα v1 ECD recombinant protein (human, UniProt P78324 31-373, biotin labeled); assay: competitive ELISA; competitor 032
T2 construct: extracellular domain
Outline: (§1)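 Ab coated on plate; excess competitor Ab + biotin-hSIRPα v1 ECD co-incubated; wash; HRP-SA 37 °C 1 h; TMB 15 min RT; 1N HCl stop; OD450; competition ratio calc. Mutual competition = similar epitope.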

[3] = target: T1, full length human SIRPα v1 stably …; assay: FACS on CHOK1 cells; remark: listed apart in the source
Experimental: Species cross reactivity of the purified hybridoma antibodies against human, cyno and mouse SIRPα was determined by FACS assay using CHOK1-human SIRPα v1-1B4 cells, CHOK1-cyno SIRPα-2A2 cells, and CHOK1-C57BL/6 mouse SIRPα-2.22 cells, which stably expressing SIRPα protein. Briefly the antibodies were incubated with 2×10⁵ target cells at 4° C. for 1 hour. After washing, fluorescence labeled anti-mouse or anti-human IgG 2nd antibody (Life Technologies) was added and incubated at 4° C. for 1 hour. Geometric median fluorescence intensity was detected and EC₅₀ was calculated. In particular, it is noted, in contrast to the other antibodies tested in the same experiment, 060 cannot bind with cyno SIRPα and 035 has cross reactivity against C57BL/6 mouse SIRPα. […]

[4] = target: T3, full length C57BL/6 mouse SIRPα stably expressed on CHOK1 cells (mouse (C57BL/6), UniProt P97797 32-513); assay: FACS on CHOK1 cells
T3 construct: whole, on cells; also called CHOK1-C57BL/6 mouse SIRPα-2.22 cells
T3 sequence (looked up): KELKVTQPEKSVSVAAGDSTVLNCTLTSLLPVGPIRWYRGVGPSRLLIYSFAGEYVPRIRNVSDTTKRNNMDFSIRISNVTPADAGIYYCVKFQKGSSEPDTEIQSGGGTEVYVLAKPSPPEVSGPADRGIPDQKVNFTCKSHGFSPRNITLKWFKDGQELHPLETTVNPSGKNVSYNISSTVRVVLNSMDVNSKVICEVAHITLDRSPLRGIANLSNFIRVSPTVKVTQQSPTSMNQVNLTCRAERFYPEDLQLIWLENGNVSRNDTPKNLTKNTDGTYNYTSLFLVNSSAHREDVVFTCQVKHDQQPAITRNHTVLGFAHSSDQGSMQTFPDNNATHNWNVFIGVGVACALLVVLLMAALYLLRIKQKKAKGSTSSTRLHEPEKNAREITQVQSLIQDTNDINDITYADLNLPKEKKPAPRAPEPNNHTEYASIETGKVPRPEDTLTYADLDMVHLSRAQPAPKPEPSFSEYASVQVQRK
Experimental: (§2) Species cross reactivity of the purified hybridoma antibodies against human, cyno and mouse SIRPα was determined by FACS assay using CHOK1-human SIRPα v1-1B4 cells, CHOK1-cyno SIRPα-2A2 cells, and CHOK1-C57BL/6 mouse SIRPα-2.22 cells, which stably expressing SIRPα protein. Briefly the antibodies were incubated with 2×10⁵ target cells at 4° C. for 1 hour. After washing, fluorescence labeled anti-mouse or anti-human IgG 2nd antibody (Life Technologies) was added and incubated at 4° C. for 1 hour. Geometric median fluorescence intensity was detected and EC₅₀ was calculated. In particular, it is noted, in contrast to the other antibodies tested in the same experiment, 060 cannot bind with cyno SIRPα and 035 has cross reactivity against C57BL/6 mouse SIRPα.
(§3) The purified chimeric antibodies were applied for binding specificity analysis and species cross reactivity analysis (refer to methods described in Example 3.3 and 3.4). FIGS. 1A to 1D show binding specificity of anti-SIRPα chimeric antibodies against recombinant proteins of human SIRPα v1 ECD (A), human SIRPα v2 ECD (B), human SIRPβ ECD (C) and human SIRPγ ECD (D) as measured by ELISA analysis.

[5] = target: T1, full length human SIRPα v1 stably …; assay: FACS on CHOK1 cells; remark: listed apart in the source
Experimental: as §2, §3

[6] = target: T4, Fc tagged human SIRPα v1 ECD recombinant protein (human, UniProt P78324 31-370); assay: ELISA
T4 construct: range 1-370; cloned range M1-R370 includes the signal peptide; also called hSIRPα V1; not shown: human IgG Fc region (hFc) of the pCPC vector
Experimental: (§4) Binding specificity of the purified hybridoma antibodies against SIRP family members was detected by ELISA assay using recombinant proteins of Fc tagged human SIRPα v1 ECD, human SIRPα v2 ECD, human SIRPβ ECD and human SIRPγ ECD. Briefly the antibodies were incubated with ELISA microplate coated antigens at 37° C. for 1 hour. After washing, horseradish peroxidase (HRP) labeled anti-mouse or anti-human IgG 2nd Ab (Sigma) was added and incubated at 37° C. for 1 hour. Then, 100 μl/well of TMB solution (Biotechnology) was added. After incubation for 15 minutes at room temperature, the reaction was stopped by the addition of 50 μl of 1N HCl. OD 450 nm was read and EC₅₀ was calculated. Other than 060 and HEFLB, all of the antibodies as tested can bind with both human SIRPα v1 and SIRPα v2. 060 and HEFLB can bind with human SIRPα v1 but not v2. Other than 055, all of the antibodies as tested can bind with human SIRPβ. In comparison with other known anti-SIRPα antibodies, only 022, 035 and 050 can bind with human SIRPγ weakly.
as §3

[7] = target: T5, Fc tagged human SIRPα v2 ECD recombinant protein (human); assay: ELISA
T5 construct: range 1-369; cloned range M1-R369 includes the signal peptide; also called hSIRPα V2
Experimental: as §4, §3

[8] = target: T6, Fc tagged human SIRPβ ECD recombinant protein (human, UniProt O00241 30-371); assay: ELISA
T6 construct: range 1-371; cloned range includes the signal peptide; also called hSIRPβ; not shown: human IgG Fc region (hFc) of the pCPC vector
Experimental: as §4, §3

[9] = target: T4, Fc tagged human SIRPα v1 ECD …; assay: ELISA; remark: listed apart in the source
Experimental: as §4, §3

[10] = target: T2, biotin labeled soluble human SIRPα v1 …; assay: competitive ELISA; competitor 035
Outline: as §1

T1 sequence (P78324 31-504): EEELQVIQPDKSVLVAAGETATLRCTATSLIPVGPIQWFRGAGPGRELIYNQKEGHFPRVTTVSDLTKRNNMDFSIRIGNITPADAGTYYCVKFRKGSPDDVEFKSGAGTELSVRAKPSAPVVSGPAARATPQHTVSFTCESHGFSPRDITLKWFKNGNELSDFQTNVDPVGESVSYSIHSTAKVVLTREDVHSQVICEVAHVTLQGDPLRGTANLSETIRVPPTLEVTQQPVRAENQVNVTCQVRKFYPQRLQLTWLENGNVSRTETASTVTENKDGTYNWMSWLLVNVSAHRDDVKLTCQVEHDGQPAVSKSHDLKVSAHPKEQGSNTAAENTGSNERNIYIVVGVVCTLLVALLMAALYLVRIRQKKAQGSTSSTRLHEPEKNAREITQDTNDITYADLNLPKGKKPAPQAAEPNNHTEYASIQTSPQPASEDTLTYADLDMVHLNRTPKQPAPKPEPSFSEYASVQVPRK
T2 sequence (P78324 31-373): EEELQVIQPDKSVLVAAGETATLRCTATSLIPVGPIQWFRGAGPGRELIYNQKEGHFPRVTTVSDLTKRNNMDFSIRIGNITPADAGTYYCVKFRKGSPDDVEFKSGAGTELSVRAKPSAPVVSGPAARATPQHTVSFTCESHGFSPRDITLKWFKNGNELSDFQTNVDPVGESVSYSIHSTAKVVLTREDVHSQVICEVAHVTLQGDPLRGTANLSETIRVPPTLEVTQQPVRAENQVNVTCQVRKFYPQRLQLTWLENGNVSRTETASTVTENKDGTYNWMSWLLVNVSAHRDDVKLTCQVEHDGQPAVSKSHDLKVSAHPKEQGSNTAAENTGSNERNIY
T4 sequence (P78324 31-370 limits assumed): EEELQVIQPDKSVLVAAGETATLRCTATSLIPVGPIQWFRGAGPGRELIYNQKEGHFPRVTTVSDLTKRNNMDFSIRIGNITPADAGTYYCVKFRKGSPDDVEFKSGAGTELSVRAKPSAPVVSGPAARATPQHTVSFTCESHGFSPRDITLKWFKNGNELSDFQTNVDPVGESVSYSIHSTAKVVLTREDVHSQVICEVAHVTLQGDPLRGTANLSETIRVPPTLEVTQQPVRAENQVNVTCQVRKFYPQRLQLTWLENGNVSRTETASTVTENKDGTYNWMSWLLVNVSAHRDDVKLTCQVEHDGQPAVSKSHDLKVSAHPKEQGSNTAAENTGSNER
T6 sequence (O00241 30-371 limits assumed, form in doubt): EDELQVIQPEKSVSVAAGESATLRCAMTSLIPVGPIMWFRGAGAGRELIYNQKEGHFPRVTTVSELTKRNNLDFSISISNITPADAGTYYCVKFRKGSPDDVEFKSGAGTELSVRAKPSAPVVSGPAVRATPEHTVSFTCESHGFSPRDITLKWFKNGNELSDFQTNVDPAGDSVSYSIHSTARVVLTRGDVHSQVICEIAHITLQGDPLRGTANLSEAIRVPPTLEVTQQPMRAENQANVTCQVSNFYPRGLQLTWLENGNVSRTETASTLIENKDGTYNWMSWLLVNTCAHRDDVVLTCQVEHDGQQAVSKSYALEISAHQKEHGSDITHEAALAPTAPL

EC50 [1]: 13.6 nM
% Competition [2]: 97%
EC50 [3]: 13.6 nM
binding result [4]: no binding (tested: 10 nM)
EC50 [5]: 13.6 nM
EC50 [6]: 0.11 nM
EC50 [7]: 0.08 nM
EC50 [8]: 0.08 nM
EC50 [9]: 0.11 nM
% Competition [10]: 98%
B1: reference antibody 29-AM4-5 (antibody, V domains shown)
VH: EVQLVESGGGLVQPGGSLRLSCAASGFNISYYFIHWVRQAPGKGLEWVASVYSSFGYTYYADSVKGRFTISADTSKNTAYLQMNSLRAEDTAVYYCARFTFPGLFDGFFGAYLGSLDYWGQGTLVTVSS
VL: DIQMTQSPSSLSASVGDRVTITCRASQSVSSAVAWYQQKPGKAPKLLIYSASSLYSGVPSRFSGSRSGTDFTLTISSLQPEDFATYYCQQAVNWVGALVTFGQGTKVEIK
